Experimental data published in publication PMC11323322.

How the values were obtained:
[1] = tested on: CIL-6A6-1 (DNA, G4, circular (5' and 3' ends ligated)) ATCTCGACTAGTCAGTGGTGGATATGGGGAGGCTGTGGTGAGGGTATGGTTGTCTCGGATTGGTTGTCTCGGAT; assay: fluorescence enhancement
[2] = tested on: CIL-6A6-1A (DNA, G4, circular) ATCTCGACTAGTCAGTGGTGGATATGTGCACACTGTTGTGAACGTATGGTTGTCTCGGATTGGTTGTCTCGGAT; assay: fluorescence enhancement
[3] = tested on: AIR-3A (RNA, G4) GGGGAGGCUGUGGUGAGGG; assay: fluorescence enhancement
[4] = molecular target: T1, sIL-6R (soluble IL-6 receptor alpha) (human, UniProt P08887 20-355); assay: pull-down, real-time PCR; 1x PBSMT pH 7.2: 137 mM NaCl, 2.68 mM KCl, 8.1 mM Na2HPO4, 1.76 mM KH2PO4, 1 mM MgCl2, 0.025% Tween-20; pull-down 1 h (room temperature in SELEX); MST at 25 C; details: protein: commercial; circular
T1 sequence (P08887 20-355): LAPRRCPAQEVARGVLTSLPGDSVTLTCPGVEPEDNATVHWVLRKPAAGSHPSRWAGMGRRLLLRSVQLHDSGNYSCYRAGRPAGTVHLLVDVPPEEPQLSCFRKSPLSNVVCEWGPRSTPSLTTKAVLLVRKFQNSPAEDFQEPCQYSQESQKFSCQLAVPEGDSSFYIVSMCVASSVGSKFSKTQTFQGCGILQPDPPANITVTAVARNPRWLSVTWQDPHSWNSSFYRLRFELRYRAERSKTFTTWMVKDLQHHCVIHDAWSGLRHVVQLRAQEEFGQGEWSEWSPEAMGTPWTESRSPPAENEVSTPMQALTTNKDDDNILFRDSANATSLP

IL-6 (interleukin-6) [5] = molecular target: T2, IL-6 (interleukin-6) (human, UniProt P05231 30-212); assay: as above; details: protein: commercial; circular
T2 sequence (P05231 30-212): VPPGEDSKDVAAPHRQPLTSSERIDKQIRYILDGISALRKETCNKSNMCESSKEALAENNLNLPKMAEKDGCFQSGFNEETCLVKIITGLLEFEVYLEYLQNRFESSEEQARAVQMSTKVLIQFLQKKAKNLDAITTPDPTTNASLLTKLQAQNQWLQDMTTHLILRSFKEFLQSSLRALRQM

IL-6 (interleukin-6) [6] = molecular target: T2, IL-6 (interleukin-6); assay: pull-down, real-time PCR; affinity largely retained; 1x PBSMT pH 7.2: 137 mM NaCl, 2.68 mM KCl, 8.1 mM Na2HPO4, 1.76 mM KH2PO4, 1 mM MgCl2, 0.025% Tween-20; pull-down 1 h (room temperature in SELEX); MST at 25 C; details: protein: commercial; circular
[7] = molecular target: T1, sIL-6R (soluble IL-6 receptor alpha); assay: pull-down, real-time PCR; fully functional; 1x PBSMT pH 7.2: 137 mM NaCl, 2.68 mM KCl, 8.1 mM Na2HPO4, 1.76 mM KH2PO4, 1 mM MgCl2, 0.025% Tween-20; pull-down 1 h (room temperature in SELEX); MST at 25 C; details: protein: commercial; circular
IL-6 (interleukin-6) [8] = molecular target: T2, IL-6 (interleukin-6); assay: as above; details: protein: commercial; circular
[9] = molecular target: T1, sIL-6R (soluble IL-6 receptor alpha); assay: pull-down, real-time PCR; smaller Kd than CIL-6A; value only in figure; 1x PBSMT pH 7.2: 137 mM NaCl, 2.68 mM KCl, 8.1 mM Na2HPO4, 1.76 mM KH2PO4, 1 mM MgCl2, 0.025% Tween-20; pull-down 1 h (room temperature in SELEX); MST at 25 C; details: protein: commercial; circular; two putative antiparallel G4 motifs
IL-6 (interleukin-6) [10] = molecular target: T2, IL-6 (interleukin-6); assay: as above; details: protein: commercial; circular; two putative antiparallel G4 motifs
[11] = molecular target: T1, sIL-6R (soluble IL-6 receptor alpha); assay: MST; 1x PBSMT pH 7.2: 137 mM NaCl, 2.68 mM KCl, 8.1 mM Na2HPO4, 1.76 mM KH2PO4, 1 mM MgCl2, 0.025% Tween-20; pull-down 1 h (room temperature in SELEX); MST at 25 C; details: protein: commercial
IL-6 (interleukin-6) [12] = molecular target: T2, IL-6 (interleukin-6); assay: as above; details: protein: commercial; linear
[13] = order of intensities similar to ThT

Q: Which binding ([1]; excitation 425 nm, highest intensity of the five sequences) does the source give for `Cc1ccc2c(c1)sc(-c1ccc(N(C)C)cc1)[n+]2C` here?
A: yes

Q: What about the binding ([2]; excitation 425 nm, intensity below CIL-6A6-1) of the same molecule?
A: yes

Q: What about the binding ([3]; excitation 425 nm, second highest intensity, with or above CIL-6A6-1A) of the same molecule?
A: yes

Q: How did the binding ([1]; fluorescence decreased by added 50 and 100 mM Li+) turn out when `CCc1c(C)c2cc3nc(cc4nc(cc5c(CC)c(C)c(cc1[nH]2)n5C)C(C)=C4CCC(=O)O)C(CCC(=O)O)=C3C` was run?
A: yes

Q: What about the binding [2, 13] of the same molecule?
A: yes

Q: What about the binding [3, 13] of the same molecule?
A: yes

B1: CIL-6C (ssDNA)
DNA: ATCTCGACTAGTCATATGGTGTAGATCCTTGGGGAGGCTGTGGTGAGGGGGTTGAAGGTAGTTGCTCGTTGTCTCGGAT
modifications: circular
Q: Does B1 bind [4]?
A: binds

Q: Does B1 bind (IL-6 (interleukin-6) [5])?
A: binds

B2: CIL-6A-R (ssDNA)
DNA: ATCTCGACTATTTTTTTTTTTTTTTTTTTTGGGGAGGCTGTGGTGAGGGTTTTTTTTTTTTTTTTTTTTTGTCTCGGAT
modifications: circular
Q: Does B2 bind (IL-6 (interleukin-6) [5])?
A: no binding

B3: CIL-6B (ssDNA)
DNA: ATCTCGACTAGTCAGGTGTTGTAATGGTAAGGGGAGGCTGTGGTGAGGGTTGGTTGTCACGGATAGTTGTGTCTCGGAT
modifications: circular
Q: Does B3 bind [4]?
A: binds

B4: CIL-6D (ssDNA)
DNA: ATCTCGACTAGTTAGACGCTACGTGCGGATGGGGAGGCTGTGGTGAGGGTTGGTGTTCTCGGATGATGGTGTCTCGGAT
modifications: circular
Q: Does B4 bind [4]?
A: binds

B5: CIL-6A-C (ssDNA)
DNA: ATCTCGACTAGTCAGTGGTGGATACCGGATTTTTTTTTTTTTTTTTTTTTATGGTTGTCTCGGATTGGTTGTCTCGGAT
modifications: circular
Q: Does B5 bind [4]?
A: no binding

Q: Does B5 bind (IL-6 (interleukin-6) [6])?
A: binds

B6: CIL-6A4-1 (ssDNA)
DNA: ATCTCGACTAGTCAGGGATACCGGATGGGGAGGCTGTGGTGAGGGTATGGTTGTCTCGGATTGGTTGTCTCGGAT
modifications: circular
Q: What does the source list for B6?
A: binding result [4]: binds; binding result (IL-6 (interleukin-6) [5]): binds

B7: CIL-6A (ssDNA)
DNA: ATCTCGACTAGTCAGTGGTGGATACCGGATGGGGAGGCTGTGGTGAGGGTATGGTTGTCTCGGATTGGTTGTCTCGGAT
modifications: circular (5'-3' ligated)
Q: Which Kd [4] does the source give for B7 here?
A: 6.9 nM

Q: And the Kd (IL-6 (interleukin-6) [5])?
A: 8.5 nM

B8: CIL-6A6 (ssDNA)
DNA: ATCTCGACTAGTCAGTGGTGGATATTTTTTGGGGAGGCTGTGGTGAGGGTATGGTTGTCTCGGATTGGTTGTCTCGGAT
modifications: circular
Q: Does B8 bind [7]?
A: binds

Q: Does B8 bind (IL-6 (interleukin-6) [8])?
A: binds

B9: CIL-6A4 (ssDNA)
DNA: ATCTCGACTAGTCAGTTTTGGATACCGGATGGGGAGGCTGTGGTGAGGGTATGGTTGTCTCGGATTGGTTGTCTCGGAT
modifications: circular
Q: Which results are given for B9?
A: binding result [7]: binds; binding result (IL-6 (interleukin-6) [8]): binds

B10: CIL-6A6-1 (structured_DNA)
DNA: ATCTCGACTAGTCAGTGGTGGATATGGGGAGGCTGTGGTGAGGGTATGGTTGTCTCGGATTGGTTGTCTCGGAT
modifications: circular
Q: For B10, which Kd [9] is on record?
A: < 6.9 nM

Q: What about the Kd (IL-6 (interleukin-6) [10]) of the same molecule?
A: < 8.5 nM

B11: IL-6A6-1 (linear form of CIL-6A6-1) (ssDNA)
DNA: ATCTCGACTAGTCAGTGGTGGATATGGGGAGGCTGTGGTGAGGGTATGGTTGTCTCGGATTGGTTGTCTCGGAT
modifications: linear
Q: Does B11 bind ([11]; linear)?
A: no binding

Q: Does B11 bind (IL-6 (interleukin-6) [12])?
A: no binding

B12: AIR-3A (structured_RNA)
RNA: GGGGAGGCUGUGGUGAGGG
Q: How did the Kd ([11]; G4, 2-tiered) turn out when B12 was run?
A: 67.5 nM

B13: CIL-6A46 (ssDNA)
DNA: ATCTCGACTAGTCAGGGATATGGGGAGGCTGTGGTGAGGGTATGGTTGTCTCGGATTGGTTGTCTCGGAT
modifications: circular
Q: Which results are given for B13?
A: binding result [4]: binds; binding result (IL-6 (interleukin-6) [5]): binds
